Reference: the RNAGym collection of RNA variant scans (doi:10.7554/elife.80360)

B1: Twister Ribozyme (parent)
chain: AACACUGCCAAUGCCGGUCCCAAGCCCGGAUAAAAGUGGAGGGGGCGG

Variants of: B1
Experiment: self-cleavage, relative activity (ratio to wild type); higher = more cleavage; co-transcriptional

Row | Variant | self-cleavage
1 | AACACCGCCAAUGCCGGUCCCCAGCCCGGAUAAAAGUGGAGGGGGCGG [U6C A22C] | 0.691
2 | AACACCGCCAAUGCCGGUCCCGAGCCCGGAUAAAAGUGGAGGGGGCGG [U6C A22G] | 0.0819
3 | AACACCGCCAAUGCCGGUCCCACGCCCGGAUAAAAGUGGAGGGGGCGG [U6C A23C] | 0.0308
4 | AACACCGCCAAUGCCGGUCCCAGGCCCGGAUAAAAGUGGAGGGGGCGG [U6C A23G] | 0.0715
5 | AACACCGCCAAUGCCGGUCCCAAGCCCGGCUAAAAGUGGAGGGGGCGG [U6C A30C] | 0.0653
6 | AACACCGCCAAUGCCGGUCCCAAGCCCGGGUAAAAGUGGAGGGGGCGG [U6C A30G] | 0.477
7 | AACACCGCCAAUGCCGGUCCCAAGCCCGGAUCAAAGUGGAGGGGGCGG [U6C A32C] | 0.349
8 | AACACCGCCAAUGCCGGUCCCAAGCCCGGAUUAAAGUGGAGGGGGCGG [U6C A32U] | 0.488
9 | AACACCGCCAAUGCCGGUCCCAAGCCCGGAUAGAAGUGGAGGGGGCGG [U6C A33G] | 0.429
10 | AACACCGCCAAUGCCGGUCCCAAGCCCGGAUAACAGUGGAGGGGGCGG [U6C A34C] | 0.18
11 | AACACCGCCAAUGCCGGUCCCAAGCCCGGAUAAGAGUGGAGGGGGCGG [U6C A34G] | 0.788
12 | AACACCGCCAAUGCCGGUCCCAAGCCCGGAUAAUAGUGGAGGGGGCGG [U6C A34U] | 0.333
13 | AACACCGCCAAUGCCGGUCCCAAGCCCGGAUAAAGGUGGAGGGGGCGG [U6C A35G] | 0.832
14 | AACACCGCCAAUGCCGGUCCCAAGCCCGGAUAAAUGUGGAGGGGGCGG [U6C A35U] | 0.619
15 | AACACCGCCAAUGCCGGUCCCAAGCCCGGAUAAAAGUGGCGGGGGCGG [U6C A40C] | 0.11
16 | AACACCGCCAAUGCCGGUCCCAAGCCCGGAUAAAAGUGGUGGGGGCGG [U6C A40U] | 0.119
17 | AACACCGACAAUGCCGGUCCCAAGCCCGGAUAAAAGUGGAGGGGGCGG [U6C C8A] | 0.047
18 | AACACCGGCAAUGCCGGUCCCAAGCCCGGAUAAAAGUGGAGGGGGCGG [U6C C8G] | 0.0656
19 | AACACCGCAAAUGCCGGUCCCAAGCCCGGAUAAAAGUGGAGGGGGCGG [U6C C9A] | 0.0857
20 | AACACCGCCAAUGACGGUCCCAAGCCCGGAUAAAAGUGGAGGGGGCGG [U6C C14A] | 0.504
21 | AACACCGCCAAUGUCGGUCCCAAGCCCGGAUAAAAGUGGAGGGGGCGG [U6C C14U] | 0.473
22 | AACACCGCCAAUGCGGGUCCCAAGCCCGGAUAAAAGUGGAGGGGGCGG [U6C C15G] | 0.1
23 | AACACCGCCAAUGCCGGUACCAAGCCCGGAUAAAAGUGGAGGGGGCGG [U6C C19A] | 0.104
24 | AACACCGCCAAUGCCGGUCGCAAGCCCGGAUAAAAGUGGAGGGGGCGG [U6C C20G] | 0.0668
25 | AACACCGCCAAUGCCGGUCCAAAGCCCGGAUAAAAGUGGAGGGGGCGG [U6C C21A] | 0.0427
26 | AACACCGCCAAUGCCGGUCCGAAGCCCGGAUAAAAGUGGAGGGGGCGG [U6C C21G] | 0.109
27 | AACACCGCCAAUGCCGGUCCCAAGACCGGAUAAAAGUGGAGGGGGCGG [U6C C25A] | 0.108

Row | Variant | self-cleavage
28 | AACACCGCCAAUGCCGGUCCCAAGCUCGGAUAAAAGUGGAGGGGGCGG [U6C C26U] | 0.0774
29 | AACACCGCCAAUGCCGGUCCCAAGCCGGGAUAAAAGUGGAGGGGGCGG [U6C C27G] | 0.0742
30 | AACACCGCCAAUGCCGGUCCCAAGCCUGGAUAAAAGUGGAGGGGGCGG [U6C C27U] | 0.275
31 | AACACCGCCAAUGCCGGUCCCAAGCCCGGAUAAAAGUGGAGGGGGGGG [U6C C46G] | 0.589
32 | AACACCGCCAAUGCCGGUCCCAAGCCCGGAUAAAAGUGGAGGGGGUGG [U6C C46U] | 0.625
33 | AACACCUCCAAUGCCGGUCCCAAGCCCGGAUAAAAGUGGAGGGGGCGG [U6C G7U] | 0.0403
34 | AACACCGCCAAUGCCUGUCCCAAGCCCGGAUAAAAGUGGAGGGGGCGG [U6C G16U] | 0.371
35 | AACACCGCCAAUGCCGUUCCCAAGCCCGGAUAAAAGUGGAGGGGGCGG [U6C G17U] | 0.072
36 | AACACCGCCAAUGCCGGUCCCAAUCCCGGAUAAAAGUGGAGGGGGCGG [U6C G24U] | 0.0929
37 | AACACCGCCAAUGCCGGUCCCAAGCCCAGAUAAAAGUGGAGGGGGCGG [U6C G28A] | 0.319
38 | AACACCGCCAAUGCCGGUCCCAAGCCCCGAUAAAAGUGGAGGGGGCGG [U6C G28C] | 0.215
39 | AACACCGCCAAUGCCGGUCCCAAGCCCUGAUAAAAGUGGAGGGGGCGG [U6C G28U] | 0.295
40 | AACACCGCCAAUGCCGGUCCCAAGCCCGCAUAAAAGUGGAGGGGGCGG [U6C G29C] | 0.173
41 | AACACCGCCAAUGCCGGUCCCAAGCCCGGAUAAAACUGGAGGGGGCGG [U6C G36C] | 0.112
42 | AACACCGCCAAUGCCGGUCCCAAGCCCGGAUAAAAGUAGAGGGGGCGG [U6C G38A] | 0.423
43 | AACACCGCCAAUGCCGGUCCCAAGCCCGGAUAAAAGUCGAGGGGGCGG [U6C G38C] | 0.249
44 | AACACCGCCAAUGCCGGUCCCAAGCCCGGAUAAAAGUGGAAGGGGCGG [U6C G41A] | 0.117
45 | AACACCGCCAAUGCCGGUCCCAAGCCCGGAUAAAAGUGGACGGGGCGG [U6C G41C] | 0.13
46 | AACACCGCCAAUGCCGGUCCCAAGCCCGGAUAAAAGUGGAUGGGGCGG [U6C G41U] | 0.113
47 | AACACCGCCAAUGCCGGUCCCAAGCCCGGAUAAAAGUGGAGAGGGCGG [U6C G42A] | 0.0608
48 | AACACCGCCAAUGCCGGUCCCAAGCCCGGAUAAAAGUGGAGGGUGCGG [U6C G44U] | 0.502
49 | AACACCGCCAAUGCCGGUCCCAAGCCCGGAUAAAAGUGGAGGGGACGG [U6C G45A] | 0.6
50 | AACACCGCCAAUGCCGGUCCCAAGCCCGGAUAAAAGUGGAGGGGCCGG [U6C G45C] | 0.206
51 | AACACCGCCAAUGCCGGUCCCAAGCCCGGAUAAAAGUGGAGGGGUCGG [U6C G45U] | 0.495
52 | AACACCGCCAAUGCCGGUCCCAAGCCCGGAUAAAAGUGGAGGGGGCGC [U6C G48C] | 0.829
53 | AACACCGCCAAUGCCGGUCCCAAGCCCGGAUAAAAGUGGAGGGGGCGU [U6C G48U] | 0.607
54 | AACACCGCCAAAGCCGGUCCCAAGCCCGGAUAAAAGUGGAGGGGGCGG [U6C U12A] | 0.663
